Assay: yeast display, Sf9 membrane polyspecificity reagent, FACS + sequencing; frameworks hold sequencing errors
How it was run: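 Using colony PCR, genes from sorted yeast display clones were amplified, then sequenced on MiSeq at 2 × 250 and filtered by CDR length. The clones had been stained with 10% biotinylated, detergent-solubilized Sf9 membrane reagent for 1 hour at 4 °C and sorted by FACS into low and high (top ~1%) gates on anti-HA and streptavidin fluorescence. Polyreactivity labels come from the gate of origin.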

| Sequence | polyreactivity (PSR sort gate) |
| --- | --- |
| QVQLVESGGGLVQAGGSLRLSCAASGRIFLTNAMGSYRQAPGKERELVAAIRFSGGRTYYADSVKGRFTISRDNAKNTVYLQMNSLKPEDNAVYYCAADPPRTRYRNARFDYWGQGTQVTVSS | high polyreactivity |
| QVQLVESGGGLVQAGGSLRLSCAASGRIFLTNTMGWYRQAPGKERELVAGISRGGRTYDADSVKGRFTISRDNAKNTVYLLKNSLKPEDTAVYYCAGRHRTPIYPYKRDYWGQGTQVSVSS | high polyreactivity |
| QVQLVESGGGLVQAGGSLRLSCAASGRIFLVNAMGWYRQAPGKEREFVAAITDNPGSTYYADSVKGRFTISRDNAKNTVYLQMNSLKPEDTAVYYCAKQRGNKRIGYDSWGQGTQVTVSS | low polyreactivity |
| QVQLVESGGGLVQAGGSLRLSCAASGRIFLYYAMGWYRQAPGKERELVAASTYTDGSTYYADSVKGRFTISRDNAKNTVYLQMNSLKPEDTAVYYCAAEFYYYDYWGQGTQVTVSS | low polyreactivity |
| QVQLVESGGGLVQAGGSLRLSCAASGRIFLYYTMGWYRQAPGKERELDAAITRSGGSTYYADSVKGRFTISRDNAKNTDYLQMNSLKPEDTAVYYCNRAYVRYVPMNYWGQGTQVTVSS | high polyreactivity |
| QVQLVESGGGLVQAGGSLRLSCAASGRIFNAYAIGWYRQAPGKERELVAAITVSGTRTYYADSVKGRFTISRDNAKNTVYLQMNSLKPEDTAVYYCAADIYHQPRYKYYYWGQGTQVTVSS | high polyreactivity |
| QVQLVESGGGLVQAGGSLRLSCAASGRIFNDYAMGWYRQAPGKERELVATYADSVKGRFTISRDNAKNTVYLQMNSLKPEDTAVYYCAADFPSFPDFRPEYDYWGQGTQVTVSS | low polyreactivity |
| QVQLVESGGGLVQAGGSLRLSCAASGRIFNENAMGWYRQAPGKERELVAAISRRGGTTYYADSVKGRFTISRDNAKNTVYLQMNSLIPEDTAVYYCNARYSKKGESQREYDYWGQGTQVTVSS | low polyreactivity |
| QVQLVESGGGLVQAGGSLRLSCAASGRIFNGYTMGWYRQAPGKEREFVATISRSGGSTYYADSVKGRFTISRDNAKNTVYLQMNSLKPEDTAVYYCAKTYPAKWEYDYWGQGTQVTVSS | low polyreactivity |
| QVQLVESGGGLVQAGGSLRLSCAASGRIFNHNTMGWYRQAPGKERELVAAISRSGASTYYADSVKGRFTISRDNAKNTVYLQMNSLKPEDTAVYYCNAATYADGITIYDYWGQGTQVTVSS | low polyreactivity |
| QVQLVESGGGLVQAGGSLRLSCAASGRIFNIYAMGWYRQAPGKERELVAAISVSGTRTYYADSVKGRFTISRDNAKNTVYLQMNSLKPEDTAVYYCAADSYGGVWTEHMYYWGQGTQVTVSS | low polyreactivity |
| QVQLVESGGGLVQAGGSLRLSCAASGRIFNLYDMGWYRQAPGKERELVAAIRIGDRTYYADSVKGRFTISRDNEKNTVYLQMNSLKQEDTAVYYCNREYLSNRDKRFFYWGQGTQVTVSS | low polyreactivity |
| QVQLVESGGGLVQAGGSLRLSCAASGRIFNPNVMGWYRQAPGKERELVAAISWSGDTTYYADSVKWRFTISRDNAKNTVYLQMNSLKPEDTEVYYCATESDGYAYENYEYWGQGTQVTVSS | high polyreactivity |
| QVQLVESGGGLVQAGGSLRLSCAASGRIFNRNAMGWYRQAPGKERELVAAISSDTSTNYADSVKGRFTISRDNAKNTVYLQMNSLKPEDTAVYYCAADVRRYDGYDYWGQGTQVTVSS | low polyreactivity |
| QVQLVESGGGLVQAGGSLRLSCAASGRIFNRYAMGWYRQAPGKERELVAAISRGGGTNYADSVKGRFTISRDNAKNTVYLQMNSLKPEDTAVYYCAAARGHNVETSTTYDRGDYWGQGTQVTVSS | low polyreactivity |
| QVQLVESGGGLVQAGGSLRLSCAASGRIFNRYAMGWYRQAPGKERELVAAITSGGDTNYADSVKGRFTISRDNAKNTVYLQMNSLKPEDTAVYYCNARSRGRASGYDYWGQGTQVTVSS | high polyreactivity |

| Sequence | polyreactivity (PSR sort gate) |
| --- | --- |
| QVQLVESGGGLVQAGGSLRLSCAASGRIFNRYAMGWYRQAPGKERELVAAITSGGDTNYADSVKGRFTISRDNAKNTVYLQMNSLKPEETAVYYCAAYLYPWYSRYYYWGQGTQVTVSS | high polyreactivity |
| QVQLVESGGGLVQAGGSLRLSCAASGRIFNRYAMGWYRQAPGKERELVAAITTSADSTYADSVKGRFTISRDNAKNTVYLQMNSLKPEDTAVYYCNVASRQGSTYDYWGQGTQVTVSS | high polyreactivity |
| QVQLVESGGGLVQAGGSLRLSCAASGRIFNTYAMGWFRQAPGKERELVAAITRSAGRTYYADSVKGRFTISRDTAKNTVYLQMNSLKPEDTAVYYCAAQYNYGQRSGPYGYWGQGTQVTVSS | low polyreactivity |
| QVQLVESGGGLVQAGGSLRLSCAASGRIFNVYAMGWYRQAPGKERELVAAIRRRGDRTYYADSVKGRFTISRDNAKNTVYLQMNSLKPEDTAVYYCAKSQSAKGGYDYWGQGTQVTVSS | high polyreactivity |
| QVQLVESGGGLVQAGGSLRLSCAASGRIFNWYAMGWYRQAPGKERELVARISSGDITSYADSVKGRFTISRDNAKNTVYLQMNSLKPEDTAVYYCAARQWFLYDYWGHGTQVTVSS | low polyreactivity |
| QVQLVESGGGLVQAGGSLRLSCAASGRIFNYNAMGWYRQAPGKERELVAAITSSGDSTNYADSVKGRFTISRDNAKNTVYLQMNSLKPEDTAVYYCNASSPYDYDWGQGTQVTVSS | low polyreactivity |
| QVQLVESGGGLVQAGGSLRLSCAASGRIFNYNVMGWYRQAPGKERELVASISYSSTRTYYADSVKGRFTISRDTAKNTVYLQMNSLKPEDTAVYYCNADYYFSSYRSTFDYWGQGTQVTVSS | low polyreactivity |
| QVQLVESGGGLVQAGGSLRLSCAASGRIFNYYAMGWYRQAPGKEREFVAAITRSGGRTYYADSVKGRFTISRDNAKNTVYLQMNSLKPEDPAVYYCAAGRYVWREYYYWGQGTQVTVSS | high polyreactivity |
| QVQLVESGGGLVQAGGSLRLSCAASGRIFNYYAMGWYRQAPGKERELVAAINSGGSTYADSVKGRFTISRDNAKNTVYLQMNSLKPEDTAVYYCAKDGQLQSVRERPSGYDHWGQGTQVTVSS | low polyreactivity |
| QVQLVESGGGLVQAGGSLRLSCAASGRIFNYYAMGWYRQAPGKERELVAAISSGGITNYADSVKGRFTISRDNAKNTVYLQMNSLKPEDTAVYYCAADRSNRPYYRQGYDYWGQGTQVTVSS | high polyreactivity |
| QVQLVESGGGLVQAGGSLRLSCAASGRIFPANDMGWYRQAPGKERELVASIRRGGITYADSVKGRFTISRDNAKNTVYLQMNSLKPEDNAVYYCNADYRGWGYHMDYWGQGTQVTVSS | low polyreactivity |
| QVQLVESGGGLVQAGGSLRLSCAASGRIFPANVMGWYRQAPGKETELVAAITRGDSTNYADSVKGRFTISRDNAKNTVYLQMTSLKPEDTAVYYCAAYGRYLLWDYDYWGQGTQVTVSS | low polyreactivity |
| QVQLVESGGGLVQAGGSLRLSCAASGRIFPAYAMGWYRQAPGKERELVAAITGGGSTNYADSVKGRFTISRDNAKNTVYLQMNSLKPEDTAVYYCNAVTGTYGWAPQAREQEDYWGQGTQVTVSS | low polyreactivity |
| QVQLVESGGGLVQAGGSLRLSCAASGRIFPAYAMGWYRQAPGKEREWVASIRRGGITYADSVKGRFTISRDNAKNTVYLQMNSLKPEDTAVYYCNADYRGWGYHMDYWGQGTQVTVSS | low polyreactivity |
| QVQLVESGGGLVQAGGSLRLSCAASGRIFPFYAMGWYRKAPGKERELVARITLSGGSTYYADSVKGRFTISRDNAKNTVYLQMNSLKPEDTAVYYCAADRTSWSVLDFDYWGQGTQVTVSS | low polyreactivity |
| QVQLVESGGGLVQAGGSLRLSCAASGRIFPFYAMGWYRQAPGKERELVAAISRGGSTKYADSVKGRFTISRDNAKNTVYLQMKSLKPEDTAVYYCAAAGYGGSVAAYYYWGQGTQVTVSS | high polyreactivity |
